Assay results from paper PMC4595762, “Structural basis of Ornithine Decarboxylase inactivation and accelerated degradation by polyamine sensor Antizyme1” (Scientific Reports, 2015).

Biological target: T1, Ornithine decarboxylase (human, UniProt P11926 1-461)
T1 construct: Ornithine decarboxylase, Homo sapiens, full length; Cloned into pGEX-6p-1; The complex was purified and crystallised with the co-factor PLP (1 mM); One ODC monomer stands in the complex with cAZ1; also called ODC; human ODC; source: E. coli BL21 (DE3), purified (glutathione Sepharose 4B, PreScission cleavage, Superdex-200)
T1 sequence (looked up): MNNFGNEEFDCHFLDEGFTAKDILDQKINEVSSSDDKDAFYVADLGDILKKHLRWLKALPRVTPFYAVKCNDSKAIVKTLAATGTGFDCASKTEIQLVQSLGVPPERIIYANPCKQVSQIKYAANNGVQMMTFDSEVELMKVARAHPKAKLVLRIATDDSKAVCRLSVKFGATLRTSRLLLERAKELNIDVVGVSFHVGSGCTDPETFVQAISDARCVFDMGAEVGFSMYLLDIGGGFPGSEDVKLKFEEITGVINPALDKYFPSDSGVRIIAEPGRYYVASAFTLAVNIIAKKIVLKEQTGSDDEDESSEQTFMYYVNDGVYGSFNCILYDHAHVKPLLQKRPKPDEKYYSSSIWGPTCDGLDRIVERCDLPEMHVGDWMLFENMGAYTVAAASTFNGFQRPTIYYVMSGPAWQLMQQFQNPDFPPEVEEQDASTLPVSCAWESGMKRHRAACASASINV
Assay: crystal structure; purified ODC and cAZ1 mixed on ice for 1 hour with cAZ1 in excess; complex purified on Superdex-200 in 20 mM Tris pH 8.5, 150 mM NaCl, 2 mM DTT, 1 mM PLP; hanging-drop crystals at 15 °C; 3.2 Å
Details: both partners purified

- binding result: binds
B1: N-terminally truncated Antizyme1 (residues 69-228) (domain or fragment)
chain: not shown
notes: Antizyme1 (AZ1), Homo sapiens, N-terminally truncated, residues 69-228; Cloned into pGEX-6p-1; also called cAZ1; AZ1; source: E. coli BL21 (DE3), purified (glutathione Sepharose 4B, PreScission cleavage, Superdex-200)
